Test results from patent publication US10829528B2, “Therapeutic agents for neurological and psychiatric disorders” (VIB VZW, priority 2016, dated 2020).

Experiments:
[1] = molecular target: T1, sushi1 domain of GABABR1a (Homo sapiens, UniProt Q9UBS5); experiment: Isothermal titration calorimetry (ITC) with purified sushi1; assay type: binding; conditions: 25° C., read-out: dissociation constant (KD)
T1 construct: made in house
Procedure: We first determined which GABAB subunit and isoform sAPPα bound. The GABABR is comprised of two subunits, the GABABR1 and the GABABR2 subunit. GABABR1 is present as two main isoforms (1a and 1b), with the only difference between these isoforms being the presence of two protein-binding sushi repeats in the ectodomain of GABABR1a (FIG. 1A-B). […] The sequence of the Sushi domain 1 is […].
All ITC experiments were carried out on a MicroCal iTC200 system. For ITC experiments involving APP constructs expressed in HEK293 cells, the purified GABABR1a-Sushi1 domain, sAPPα, CuBDAcD, AcD and CuBD constructs were buffer-exchanged by size exclusion chromatography in 20 mM Na-HEPES pH 7.0, 150 mM NaCl supplemented with 5 mM CaCl2. Concentrated samples were diluted and degassed before the experiment at the concentrations reported in the FIG. legends. sAPP fragments (all of them at 30 μM) were placed in the MicroCal sample cell and matching buffer was placed in the reference cell. Sushi1 (300 μM) was in the syringe and was injected into the cell in a series of 1 μL injections at 25° C. All the datasets were subtracted with a reference data consisting of serial injections of Sushi1 in the cell, containing buffer only under the same conditions. For ITC experiments involving synthetic APP peptides, the Sushi-1 protein was dialysed overnight to PBS buffer. […]

[2] = tested on: Schaffer collateral (SC) synapses in mouse hippocampus; experiment: fEPSP field recordings at Schaffer collateral synapses in hippocampal slices; assay type: cell-based
Procedure: We assessed the effect of sAPPα on the synaptic properties of Schaffer collateral (SC) synapses in mouse hippocampus. […] As change in probability of neurotransmitter release inversely correlates with a change in short-term facilitation, we applied a burst of 5 stimuli at 3 different frequencies (20, 50, and 100 Hz) to induce short-term facilitation at the SC. […] Preincubation with the GABABR antagonist CGP54626 (CGP, 10 μM) for 20 min before the incubation with sAPPα blocked its effects on the peak amplitude of the fESPS and the input/output slopes (FIG. 10f-g). Accordingly, CGP occluded sAPPα-induced augmentation of short-term facilitation at 20, 50, and 100 Hz burst frequencies (FIG. 10h-j).
On the day of recording the brain of a 2-month-old Balb/c male mouse was quickly removed and 400 μm-thick horizontal slices were prepared in an ice-cold oxygenated buffer containing (in mM): sucrose, 182; KCl, 2.5; MgSO4, 2; NaH2PO4, 1.25; NaHCO3, 25; CaCl2), 0.8; MgCl2, 5; glucose, 25; ascorbate, 1; HEPES, 20. The slicing procedure was performed using a Leica VT1200 vibrating microtome. Slices were then transferred to a submerged recovery chamber at room temperature containing oxygenated (95% 02 and 5% C02) storage artificial cerebrospinal fluid (ACSF) for 30 min before the incubations (see below). The storage ACSF contained, in mM: NaCl, 100; KCl, 2.5; MgSO4, 2; NaH2PO4, 1.25; NaHCO3, 25; CaCl2), 1.2; MgCl2, 3; glucose, 20; ascorbate, 1; sodium pyruvate,3 and HEPES, 20. The slices were incubated in the incubation chambers perfused with oxygenated storage ACSF containing the experimental agents for 90 min before performing field recordings: In the incubation chamber, control slices were perfused with normal storage ACSF while sAPPα slices were perfused with storage ACSF containing 1 μM sAPPα. CGP slices were perfused with storage ACSF containing 10 μM CGP54626 (Tocris). CGP+sAPPα slices were preincubated in the chamber perfused with ACSF+CGP before being transferred into the chamber perfused with storage ACSF implemented with 10 μM CGP54626+1 μM sAPPα. All recordings were performed at 32-33° C. in a recording chamber perfused with ACSF (4 ml/min) on the stage of an Olympus BX51WI microscope equipped with IR optics and oblique illumination. Recording ACSF contains, in mM: NaCl, 129; KCl, 2.5; CaCl2), 1.2; MgCl2, 1.2; NaHCO3, 25; NaH2PO4, 1.25; glucose, 15. Stimulation of the Schaffer-collateral was delivered through a glass suction electrode (10-20 μm tip) filled with ACSF. fEPSPs were recorded using a glass pipette containing ACSF (1-2 MΩ) from proximal synapses in the CA1 stratum radiatum. Field recording experiments were analyzed using Clampfit.

T1 sequence (Q9UBS5 26-97): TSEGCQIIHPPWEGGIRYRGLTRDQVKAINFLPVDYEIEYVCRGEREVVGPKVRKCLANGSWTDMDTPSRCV

B1: sAPPα: soluble amyloid precursor protein α ectodomain; mouse APP695 18-612aa, Fc tag cleaved (protein)
chain: LEVPTDGNAGLLAEPQIAMFCGKLNMHMNVQNGKWESDPSGTKTCIGTKEGILQYCQEVYPELQITNVVEANQPVTIQNWCKRGRKQCKTHTHIVIPYRCLVGEFVSDALLVPDKCKFLHQERMDVCETHLHWHTVAKETCSEKSTNLHDYGMLLPCGIDKFRGVEFVCCPLAEESDSVDSADAEEDDSDVWWGGADTDYADGGEDKVVEVAEEEEVADVEEEEADDDEDVEDGDEVEEEAEEPYEEATERTTSTATTTTTTTESVEEVVRVPTTAASTPDAVDKYLETPGDENEHAHFQKAKERLEAKHRERMSQVMREWEEAERQAKNLPKADKKAVIQHFQEKVESLEQEAANERQQLVETHMARVEAMLNDRRRLALENYITALQAVPPRPHHVFNMLKKYVRAEQKDRQHTLKHFEHVRMVDPKKAAQIRSQVMTHLRVIYERMNQSLSLLYNVPAVAEEIQDEVDELLQKEQNYSDDVLANMISEPRISYGNDALMPSLTETKTTVELLPVNGEFSLDDLQPWHPFGVDSVPANTENEVEPVDARPAADRGLTTRPGSGLTNIKTEEISEVKMDAEFGHDSGFEVRHQK
Kd [1]: 431 nM | effect on fEPSP amplitude ([2]; 1 μM sAPPα incubation, 0.1 Hz stimulation): reducing fEPSP amplitude | decrease in the slope of the input/output curve ([2]; 1 μM sAPPα incubation, 0.1 Hz stimulation, 30-150 μA): 23% | short-term facilitation versus control slices ([2]; burst of 5 stimuli at 20, 50 and 100 Hz, 1 μM sAPPα): significantly higher
